Source: PMC8142254, “The mycobacterial proteasomal ATPase Mpa forms a gapped ring to engage the 20S proteasome” (The Journal of Biological Chemistry, 2021)

B1: Mycobacterium tuberculosis proteasomal ATPase Mpa, full-length (1–609) (enzyme)
chain: MGESERSEAFGIPRDSPLSSGDAAELEQLRREAAVLREQLENAVGSHAPTRSARDIHQLEARIDSLAARNSKLMETLKEARQQLLALREEVDRLGQPPSGYGVLLATHDDDTVDVFTSGRKMRLTCSPNIDAASLKKGQTVRLNEALTVVEAGTFEAVGEISTLREILADGHRALVVGHADEERVVWLADPLIAEDLPDGLPEALNDDTRPRKLRPGDSLLVDTKAGYAFERIPKAEVEDLVLEEVPDVSYADIGGLSRQIEQIRDAVELPFLHKELYREYSLRPPKGVLLYGPPGCGKTLIAKAVANSLAKKMAEVRGDDAHEAKSYFLNIKGPELLNKFVGETERHIRLIFQRAREKASEGTPVIVFFDEMDSIFRTRGTGVSSDVETTVVPQLLSEIDGVEGLENVIVIGASNREDMIDPAILRPGRLDVKIKIERPDAEAAQDIYSKYLTEFLPVHADDLAEFDGDRSACIKAMIEKVVDRMYAEIDDNRFLEVTYANGDKEVMYFKDFNSGAMIQNVVDRAKKNAIKSVLETGQPGLRIQHLLDSIVDEFAENEDLPNTTNPDDWARISGKKGERIVYIRTLVTGKSSSASRAIDTESNLGQYL
notes: Mpa (mycobacterial proteasome ATPase), Mycobacterium tuberculosis, full-length, residues 1-609; Homohexamer; In the cryo-EM model the coiled-coil domains and two of the six AAA domains are not resolved; also called mycobacterial proteasome ATPase; WT Mpa

Key:
[1] = target: Mycobacterium tuberculosis proteasomal ATPase Mpa, full-length (1–609) (Mycobacterium tuberculosis) (UniProt P9WQN5); experiment: not stated; stoichiometry of the in vitro assembled Pup–FabD:Mpa complex; how it was found is not told
cryo-EM structure = target: the molecule itself; experiment: cryo-EM structure

Molecule	stoichiometry N (Pup–FabD per Mpa hexamer) [1]	stoichiometry N (cryo-EM structure)
Pup–FabD (Pup translationally fused to the N terminus of malonyl CoA-acyl carrier protein transacylase)	1	
B1		6
